Results from the supplement of paper PMC12042874.
± gives the uncertainty stated by the source.

experiment: amyloid nucleation score (Sup35N fusion, yeast selection) (log enrichment); library NNK2; higher = more nucleation; inactive = no reads after selection
Summary of the method: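 Nucleation score: DiMSum log enrichment of output over input reads, centred on the mode score of non-aggregating sequences. Only sequences with at least 100 input reads were kept. Reads came from Illumina sequencing of plasmid inserts before and after 7 days of growth at 30°C without adenine and uracil, in psi-negative yeast expressing Sup35N fused to peptides of 20 random codons after 24 hours of induction with 100 μM copper sulfate.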

| Substance | amyloid nucleation score |
| --- | --- |
| SMNFRTTSSHSDILYPALC | 0.24 ± 0.48 |
| RRGTQVFCCDYWSARGSWT | 8.749 ± 0.062 |
| RVSYDF | 0.43 ± 0.65 |
| LCSLDSMPHSYITCSAKRLI | -0.443 ± 0.3 |
| YAVWLDMGFILIIACVGKYN | -0.747 ± 1.1 |
| YKSVERTASRMIQIEVFWEY | inactive |
| ILLNEVFDRTWSELPGCNCT | 0.043 ± 0.21 |
| NIVVVYIEFSGVHPTLVLLW | -0.42 ± 0.3 |
| STVWVFRYYNNYWYDQRTLP | 6.807 ± 0.054 |
| RLSVLD | 1.34 ± 0.21 |
| MLVWTNMFSTLYDISWKAPL | -1.02 ± 0.62 |
| MGYRFSGDLMEGRSTEWWRA | 0.836 ± 0.47 |
| CQLFMQSSRCIRRRFATSAC | -0.295 ± 0.76 |
| MHSLISELLLPNTIFGSAGI | -0.707 ± 0.76 |
| LAGGCRRTPAVINRLFVKTA | 0.374 ± 0.4 |
| YSHSLHVIQKSFFCITVFVM | 5.28 ± 0.08 |
| NWLKYFYVSDFQWWKGYPHV | -0.067 ± 0.36 |
| AHCVRVLHIKSRMVVSWESR | 4.19 ± 0.099 |
| VSAGVTREGLEVGTVFGP | 0.379 ± 0.44 |
| ADKCYGYASACVFSGSLVC | 0.028 ± 0.56 |
| LYQSYHELSFVTVHRSSKVD | 2.45 ± 0.15 |
| SLSCSESGVKNRKVVELGWM | 0.432 ± 0.32 |
| LAKHTGRAGKRCKDMP | -0.069 ± 0.31 |
| LATWLP | 0.871 ± 0.21 |
| RVTSEIWGCGGGFREECIKE | 0.143 ± 0.5 |

| Substance | amyloid nucleation score |
| --- | --- |
| FHDNVTQFFISISAKIYKA | 4.45 ± 0.058 |
| CVSADPFCPIEQFNVMILAL | -0.663 ± 0.42 |
| GAGWFNDFVHLPWHLEVSNY | -1.17 ± 1.1 |
| PMSSMMRGSDPKV | 0.119 ± 0.76 |
| HFETGGIS | 0.447 ± 0.57 |
| ALGTEFSVPKFTDGVNMAAR | -0.451 ± 0.48 |
| DLEYF | -1.56 ± 0.54 |
| RCREWYMR | -0.568 ± 0.63 |
| FFTRRLNSNWMCFLADNCYR | -0.439 ± 0.64 |
| NHLIV | -1.09 ± 0.3 |
| DVHFCNNLLLKRRRGSVVA | -0.153 ± 0.41 |
| IASRLTPHSLYFLINVGRGR | 2.88 ± 0.14 |
| KWSFF | 4.34 ± 0.081 |
| SQRHRAFTSWRGLMRYN | -0.476 ± 1.1 |
| LLIINIEMYRCNRLLYIDNN | 3.15 ± 0.097 |
| SVQSSWLNLLAVYIVFCCQR | -0.833 ± 0.54 |
| FVDRTCLVRSMLRVLPITGG | 0.065 ± 0.61 |
| YNISDLSMSYMAIRAYDSGS | -1.38 ± 0.62 |
| SYLLSKMQHFLMVTK | -1.32 ± 0.53 |
| SGPWTSWLVSLG | -0.003 ± 1.1 |
| ILEACREAARPAITFSFFTK | -1.04 ± 1.1 |
| VYWCLITFNHEDAHSYCFL | 2.22 ± 0.26 |
| HYVIVNIICCSDVGVLSRDR | 9.454 ± 0.069 |
| YGVYVRCYLDGSLWWNFTAW | inactive |
| LYAVRPLTVGTKCYMMRGLL | -1.59 ± 0.49 |

| Substance | amyloid nucleation score |
| --- | --- |
| CILLTGPSYSLKLAYSDCLS | -1.15 ± 0.43 |
| LHMECLKDKSCNNSSADVRG | 0.374 ± 0.62 |
| ALSFYNY | -0.282 ± 0.76 |
| ISNGYPVDRHSWVNILSLT | 1.23 ± 0.47 |
| TRFCCVATHFDYNLIIFYYP | 0.554 ± 0.23 |
| VRFVMNRSHHRSRWEAVAFN | 0.255 ± 0.48 |
| ILRCICRNILSSSRVRCSYH | inactive |
| AFPNNFTRLYALEVLFGFRN | 2.1 ± 0.21 |
| VVFTGWYHEGWRVV | 0.914 ± 0.18 |
| KAKLMKRSFWMWSCLLCFR | 0.912 ± 0.74 |
| FGYFNVHSKSSGIMKWCGQC | -0.612 ± 0.54 |
| CQRQRLNFY | -0.626 ± 1.1 |
| ALMSCLLCVHWRLDSATGGR | 5.64 ± 0.09 |
| FRNAGIKRCPFVTRDQSTHF | inactive |
| LVRGMDFHLNLDEKFFSATL | -1.05 ± 0.56 |
| LYRRFRQRCIRERERLVHGL | 0.01 ± 0.38 |
| NDVGSLWVIADVGIFYVQDK | -0.662 ± 0.61 |
| FFTMCVAMYVVRSAYGMHN | -0.03 ± 0.44 |
| RSPCIWLWFLNAACHKCVLM | 0.752 ± 0.43 |
| FYNRFRGFIFV | inactive |
| WGSGNGLVGLHYLASLFERN | 0.847 ± 0.58 |
| LYSWAFSS | inactive |
| WVNIYADLRLKVVAGNCCNV | 3.38 ± 0.12 |
| ENCFVSICVGSATLGMCSSG | 8.02 ± 0.034 |
| KSLYIGSAY | 1 ± 0.42 |

| Substance | amyloid nucleation score |
| --- | --- |
| CHLFVFLGLPRQWVKSRPYA | 0.18 ± 0.22 |
| WCAPWPWVKCLFTSPVFSVV | 0.712 ± 0.4 |
| ISYIIKILRKVVSWDNDMEV | -1.25 ± 0.45 |
| FTYRPISRNM | 4.99 ± 0.076 |
| NRILWSPNEKLLKHVTQVTL | -0.795 ± 0.61 |
| LGYTSFYSFILKEGMFTAMG | 0.434 ± 0.27 |
| HVTWKNMIIDYLVP | 0.615 ± 0.6 |
| MSSQKWADKVPWEFVCGCFD | 0.01 ± 0.65 |
| ITYGKVLR | 0.379 ± 0.44 |
| IGKRASSPYYRPSIVVYSWD | -0.302 ± 0.32 |
| GINRKDKMSKCTDLVVFCLG | -0.076 ± 0.33 |
| LWLLMYGSW | 2.4 ± 0.1 |
| DRFVLIVHINRGRV | 3.86 ± 0.048 |
| LWFGRSCGFGIGVYYRRPSL | -0.213 ± 0.48 |
| GPWAAVVRGFCPKGDKRSCG | -0.304 ± 0.41 |
| SCNRRSSVVPWWWLTFRRWN | -1.16 ± 1.1 |
| CWNKEGRFTRVTMEHASRRA | 0.973 ± 0.48 |
| NLVVCGNISGCLCYDYSFGK | 8.187 ± 0.032 |
| NVDWCCQICSCFTRIFELLM | 2.21 ± 0.23 |
| YFLKSYGAFSMFQM | 3.19 ± 0.15 |
| WRVSSSI | -0.706 ± 0.76 |
| KFSKIRFAFIIFGSKPYMRV | -0.875 ± 0.49 |
| FMLQVVGRVEVFH | 3.32 ± 0.066 |
| DKPLQWHGCVRKKSTRGRGW | 0.927 ± 0.45 |
| ISDKSVV | inactive |

| Substance | amyloid nucleation score |
| --- | --- |
| CIINNKIQVAVKNDYLDHRE | 4.69 ± 0.1 |
| HGQARWGR | 1.47 ± 0.28 |
| YVCTRWVAYYLEWYGLDGPV | 0.665 ± 0.45 |
| TRGIVGFPD | 3.93 ± 0.067 |
| LSAKWCTECNLAASRRLNIN | 0.034 ± 0.32 |
| SFWISVGLWFWLGEYMGRNE | 2.17 ± 0.12 |
| RNVACFSAVT | -0.283 ± 0.63 |
| FHVKIGW | -0.086 ± 0.33 |
| GVPYFLRW | -1.32 ± 0.48 |
| SGRYFRIRRPYEDCQGREVA | 1.22 ± 0.38 |
| CIEMFFETVFTKGLSRYACW | -0.55 ± 0.3 |
| SNFSMVCAVCV | 0.454 ± 0.34 |
| PYELCDRTVRMSFWVTVWGH | 0.281 ± 0.49 |
| NLSVHAENLDNNRSGAEV | -0.102 ± 0.76 |
| ATIWCCRVKGQVGSFNL | 0.868 ± 0.14 |
| DFILGYVDS | -0.65 ± 1 |
| FGSLTMEEFGDGDVVSNNKG | -0.956 ± 0.31 |
| LNDGPEGTCWSPNGVNSLLH | -0.382 ± 0.76 |
| FAPCNCSCVK | 0.827 ± 0.58 |
| YAFRSYMKFIYFCSDFFSDR | -2.32 ± 0.75 |
| NRNKAASYNGLYCFDPAIVD | -1.09 ± 0.55 |
| VFILWFTVSATIKKESFGNN | -2.34 ± 1.1 |
| KMTYP | 2.14 ± 0.13 |
| VSKLNLLNIHCAKPFLLEL | 3.38 ± 0.13 |
| ENLKCEPLGRVRLKDHVYVV | 0.228 ± 0.27 |

| Substance | amyloid nucleation score |
| --- | --- |
| FLGTHVHANCSGYMVMIVYR | 7.773 ± 0.041 |
| MMFTSQTGDLLFF | 4.89 ± 0.051 |
| ENNVKLIRNTTNTVVYHLIP | 7.64 ± 0.06 |
| GVASMSRRARSHKMGGWMGR | 1.05 ± 0.41 |
| VTPDLDCLRDNDMVCGGPDQ | 0.171 ± 0.23 |
| CRTRL | 0.505 ± 0.39 |
| AWLLTLPKLYSLEC | -0.434 ± 0.6 |
| LVWIEMVSF | -0.544 ± 0.78 |
| SDARPYWIIYMSNQPYGIDS | inactive |
| IPYYIDKKQSKMCNGFWS | 0.572 ± 0.57 |
| CVLDNGGTYNFRLRRMDHLI | -0.707 ± 0.79 |
| TGHFKKYVKGEGADDSNCAL | 0.347 ± 0.29 |
| EVEIEE | -0.576 ± 0.76 |
| IDYHD | -1.45 ± 0.78 |
| SHNVGYCSVSCSCTWWHSCV | inactive |
| WTMMYCTNACYDRYICNYRA | -0.038 ± 1.1 |
| NWWYSRSRPHMGSSISFSEV | -0.37 ± 0.41 |
| FIMYFVASRVNSYSSTLRVN | inactive |
| CLSMFTVWSLAFASLSVTMR | -0.034 ± 0.45 |
| YWGSFGDKLKLLNMCPLSLD | inactive |
| FVRASGHTTCYSCQLSTPGP | 1.34 ± 0.15 |
| LGFDASLKLFLVQQGLSN | -0.341 ± 0.33 |
| FFGAFGPRWGNYENITLCSY | inactive |
| FGDVQKPVRMLFVFSFWLLG | -0.392 ± 0.79 |
| GIVVFINEMLTNTNPGKS | 6.954 ± 0.039 |

| Substance | amyloid nucleation score |
| --- | --- |
| FVSGRKNETYSKVIHVSDVD | -0.198 ± 0.62 |
| KQLMRGIWDRG | -0.217 ± 0.79 |
| AGDAAN | inactive |
| MVLLLQASSI | -0.354 ± 0.54 |
| HPFVSDCVMDLKFTVVTGLV | 0.086 ± 0.3 |
| RRPIGDW | 0.169 ± 0.36 |
| HRTLFKGPSWLPKRRERAIL | -0.097 ± 0.79 |
| YALCLKALEFMVMGLPSSRM | -0.049 ± 0.76 |
| KTNSIPYSMVS | -0.113 ± 1.1 |
| NFLGGLNRFLNCSSM | -0.683 ± 1.1 |
| DNSVHCSFSYFNLPELKGCY | 3.8 ± 0.065 |
| TAVWDL | 0.745 ± 0.42 |
| GDHVVFNWRAHSSSRIVSSY | 1.17 ± 0.68 |
| SFLVSFHPMS | -1.33 ± 0.48 |
| RTLLSSCKIATSLWHMCYPQ | -0.381 ± 1.1 |
| RVGQSIYMPPLRNGRAGVKW | 1.21 ± 0.27 |
| TSHRWAMGSRYEVHIAVGMF | 1.13 ± 0.26 |
| VREGSNRVSRFHNGWHQSGL | -0.555 ± 0.79 |
| ICIDRNRI | 0.396 ± 0.34 |
| TLMQSYVQFWYTLYSHNNWL | -0.698 ± 0.24 |
| DSDLLVTHMVMLYKHVE | 3.79 ± 0.065 |
